The labels stand for the following.
T1: mApple-chis (mouse, UniProt Q91Y47 19-389)
T1 construct: range 1-389; also called mapple-chis-biotin
T1 sequence (looked up): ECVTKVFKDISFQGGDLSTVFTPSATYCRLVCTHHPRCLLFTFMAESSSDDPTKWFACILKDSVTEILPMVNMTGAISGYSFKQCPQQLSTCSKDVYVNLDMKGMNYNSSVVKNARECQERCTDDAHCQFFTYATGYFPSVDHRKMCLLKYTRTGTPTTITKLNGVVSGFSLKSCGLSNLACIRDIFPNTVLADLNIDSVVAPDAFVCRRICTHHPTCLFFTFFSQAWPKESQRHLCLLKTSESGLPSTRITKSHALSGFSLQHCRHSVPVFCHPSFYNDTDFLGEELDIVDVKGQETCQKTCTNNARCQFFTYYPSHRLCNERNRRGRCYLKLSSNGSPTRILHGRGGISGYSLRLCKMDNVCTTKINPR

B1: iFE5 (VHH, not shown: small tags and cut ends)
VHH: QVQLQESGGGSVQAGGSLRLSCAASGYTYSFNSMGWFRQAPGKEREGVAVIYLGSTHYADSVKGRFTISQDNAKNMVYLQMNSLKPEDTAMYYCAADLLEYDGTWFGSTYNYWGQGTQVTVSS
notes: also called antibody strain 5
B2: iFE43 (VHH, not shown: small tags and cut ends)
VHH: QVQLQESGGGSVQAGGSLRLSCAASGLRFSIYDWSWVRQAPGKGLEWVSAINSGGGVTSYADSVKGRVTISRDNAKNTLYLQMHSLKTEDTAVYYCATGDGGSWYRDGDWGQGTQVTVSS
notes: also called antibody strain 43
B3: iFE13 (VHH, not shown: small tags and cut ends)
VHH: QVQLQESGGGSVQAGGSLRLSCAGDGYTYSMGAMAWFRQAPGKEREGVALIATSSGFISYTDSVKGRFTISQDDAKIYLQMNSLKPEDTAMYYCAAGTQFSWSPGSYNYWGQGTQVTVSS
notes: also called antibody strain 13
B4: iFE148 (VHH, not shown: small tags and cut ends)
VHH: QVQLQESGGGSVQAGGSLRLSCVASGYTFNNNFVGWFRQAPGKEREGVAAIYSLGGSTYYADSVKGRFTISQDNAKNTVYLQMDSLKPEDTATYYCAGAITWVPPLSHRRYTYWGQGTQVTVSS
B5: iFE166 (VHH, not shown: small tags and cut ends)
VHH: QVQLQESGGGSVQAGGSLRLSCVASGFTGCRNIMSWYRQAPGKDREFVSAIDSDGVDYADSVKGRFSISQHNDKKTMYLQMTSLKLEDTAMYYCRRVDFGTTSQCRGNYWGQGTQVTVSS
B6: iFE49 (VHH, not shown: small tags and cut ends)
VHH: QVQLQESGGDSVQAGGSLRLSCAASGLISTGLISTRHCMSWFRQAPGKEREEVAVIGSDGSTRYGDFAKGRFTISKDTAKNTLYLQMNSLEPEDTAMYYCAAGPLVSTASRRRTRCPEGPRENIYWGQGTQVTVSS
notes: also called antibody strain 49
B7: iFE50 (VHH, not shown: small tags and cut ends)
VHH: QVQLQESGGGLVQPGGSLRLSCAASGFTFSLYDMSWVRQAPGQGLEWVSAITNPGGSTYYADSVKDRFTISRDNAKNTLYLQMNSLKTEDTAVYYCAIGRRATFQREKDWGQGTQVTVSS
notes: also called antibody strain 50
B8: iFE163 (VHH, not shown: small tags and cut ends)
VHH: QVQLQESGGDSVQAGGSLRLSCIASGFTFDDSDMGWYRQAPGHQCEFVSHITNDGTTYYADSVKGRFTISRDNAKNTVYLQMNSLKPEDAAVYYCAADAWGGGRSTCVNPIGYWGQGTQVTVSS
B9: iFE168 (VHH, not shown: small tags and cut ends)
VHH: QVQLQESGGGSVQAGGSLRLSCAASGYTFSNNFVGWFRQAPGKKREGVATIYTLGSSTYYADSVKGRFTISQDNAKNTLYLEMNSLKPEDTAMYYCAAARGWVSPLDPARFVYWGQGTQVTVSS
notes: also called antibody strain 168
B10: iFE35 (VHH, not shown: small tags and cut ends)
VHH: QVQLQESGGGSVQAGGSLGLSCTASGFTFDDSDMGWYRQAPGNECELVSTISSDGRGFYADSVKGRFTISQDRAKNTVYLHMNSLKPEDTAVYYCAAGWYGSFCSGLGQGTQVTVSS
notes: also called antibody strain 35
B11: iFE96 (VHH, not shown: small tags and cut ends)
VHH: QVQLQESGGGSVQAGGSLRLSCAASGFTASSNFMGWFRQAPGKEREGVAAIYTGGASTFYADSVKGRFTISQDNAKNTVYLEMDTLKPEDTAMYYCAAAPRWIAPLRADRYEYWGQGTQVTVSS
notes: also called antibody strain 96
B12: iFE97 (VHH, not shown: small tags and cut ends)
VHH: QVQLQESGGGSVQAGGSLRLSCTASEFTFDDSDMAWYRQAPGNECELVSTITSDGGTYYADSVKGRFTISQDNAKNTMYLQMNNLKPEDTAVYYCAADQWGSAEGDCTSSYPGGYWGQGTQVTVSS
notes: also called antibody strain 97
B13: iFE56 (VHH, not shown: small tags and cut ends)
VHH: QVQLQESGGGSVQAGGSLRLSCAASGHTYSSNYCMAWFRQAPGKEREGVAAIYSDGSTSYADSVKGRFTISKDNAKNTLYLQIDSLKPEDTSLYYCAATAYEGSWTGKQPLCLLYEYTYWGQGTQVTVSS
notes: also called antibody strain 56

As usually defined, the EC50 is the midpoint of the concentration-response curve. Read a high EC50 as a need for much substance.

The first assay has as its target T2, recombinant human factor XI (hFXI) (human, UniProt P03951 19-625).
T2 construct: also called hFXI-Chis; hFXI-CHis
Description: ELISA, clone lysate on coated antigen. On the technique in general: In an ELISA, binding on a coated surface is turned into a signal by an enzyme label.
Description: (§1) The FXI-binding positive phages obtained after panning were infected with blank E. coli and plated. Then 190 single colonies were randomly selected, named iFE 1 to iFE 190, and separately inoculated into 2TY-AG, and when the colonies were cultured to OD600 of about 0.8, IPTG was added to a final concentration of about 1 mM; after the expression was induced overnight at 25° C., single-domain antibodies were expressed in E. coli periplasm; the next day, the bacteria were harvested and lysed, and the supernatant was collected and used for ELISA assay. The plates were coated with hFXI, hApple and mApple, respectively, and then reacted overnight at 4° C., and the obtained sample lysis supernatant (the control group was E. coli lysis supernatant as a blank control) was added and reacted at room temperature for 2 hours. After washing, secondary antibody Goat anti-HA tag HRP (purchased from abcam) was added and reacted at room temperature for 2 hours. After washing, TMB chromogenic solution was added, absorbance values at 450 nm and 650 nm wavelengths were read, and a final absorbance value was obtained by subtracting the absorbance value at 650 nm wavelength from the absorbance value at 450 nm wavelength. When the OD value of the sample wells was more than 2 times larger than that of the control wells, the sample wells were determined as positive cloning wells.
As to B1, the OD was found to be 1.33 OD.
Turning to B2, the OD was found to be 1.06 OD.
The same measure, in the same setting: the result for B3 reads 1.94 OD; that for B4, 0.714 OD.
The same measure, in the same setting: with B5 the figure was 1.24 OD; with B6, 0.998 OD; with B7, 0.439 OD.
On to B8, for which the OD is 1.46 OD.
On the same count and under the same terms, the result for B9 reads 0.619 OD.
As to B10, the OD was determined as 1.8 OD.
On the same count and under the same terms, with B11 the figure was 0.407 OD; with B12, 1.3 OD.
B13: the OD was found to be 1.42 OD.

The target in another assay is T3, hApple-chis (human, UniProt P03951 19-387).
T3 construct: range 1-387; also called happle-chis-biotin
Kind of assay: ELISA, clone lysate on coated antigen.
Description: as §1
For B1, the OD came to 1.62 OD.
Still for that read-out and setting: with B2 the figure was 1.38 OD; with B3, 1.98 OD.
Consider B4, for which the OD stood at 0.998 OD.
As to B5, the OD came out at 1.69 OD.
On the same count and under the same terms, with B6 the figure was 1.26 OD.
Turning to B7, the OD turned out to be 1.05 OD.
Regarding B8, the OD is 1.09 OD.
B9 came in with an OD of 0.974 OD.
On to B10, for which the OD was 1.61 OD.
As for B11, the OD was determined as 0.58 OD.
Take B12: the OD was 0.994 OD.
B13: the OD stood at 1.46 OD.

The target in a further assay is T1, mApple-chis. Kind of assay: ELISA, clone lysate on coated antigen.
Description: as §1
Consider B1, for which the OD came out at 0.069 OD.
The same measure, in the same setting: with B2 the figure was 0.04 OD; with B3, 0.056 OD.
On to B4, for which the OD came out at 0.681 OD.
The molecule B5 gave an OD of 1.83 OD.
Take B6: the OD was 0.061 OD.
In turn, B7 yielded an OD of 0.042 OD.
Still for that read-out and setting: the result for B8 reads 1.07 OD; that for B9, 0.843 OD; that for B10, 0.043 OD.
On the same count and under the same terms, the result for B11 reads 0.334 OD; that for B12, 0.774 OD.
Take B13: the OD stood at 0.04 OD.

The target in a further assay is T3, hApple-chis. Description: ELISA, purified tagged VHH on coated antigen.
Description: (§2) Plates were coated with hApple and mApple proteins, respectively, at 0.5 μg/well and reacted overnight at 4° C. The plates were added with a gradient dilution series of the candidate single-domain antibodies with His and HA tags obtained in 1.4. and reacted at room temperature for 2 hours. After washing, a chicken anti-HA-tag secondary antibody (streptavidin-HRP, abcam) labeled with horseradish peroxidase was added and reacted at room temperature for 2 hours. After washing, a chromogenic solution was added, absorbance values at 450 nm and 650 nm wavelengths were read, and a final absorbance value was obtained by subtracting the absorbance value at 650 nm wavelength from the absorbance value at 450 nm wavelength. Data processing and mapping analysis were carried out by using software SotfMax Pro v5.4, and through four-parameter filling, binding curves of the candidate single-domain antibodies against FXI to hApple and mApple and EC₅₀ values were obtained so as to reflect the affinities of the candidate antibodies for hApple and mApple.
In turn, B1 yielded an EC50 of 0.0329 µg/mL.
B3 showed an EC50 of 0.0195 µg/mL.
In turn, B4 gave a concentration giving a half-maximal response (EC50) of 0.263 µg/mL.
B5 yielded an EC50 of 0.0498 µg/mL. Against the preceding molecule, the EC50 is about 5.3-fold lower.
B6 returned a 50% effective concentration (EC50) of 1.16 µg/mL.
B8 had an EC50 of 0.0162 µg/mL.
Molecule B9 returned an EC50 of 0.0205 µg/mL.
In the case of B10, the 50% effective concentration (EC50) stood at 0.0241 µg/mL.
For the molecule B11, the EC50 was found to be 1.25 µg/mL and the “OD at 20 µg/mL” value was 1.3 OD.
For B12, the concentration for a half-maximal effect (EC50) is 0.735 µg/mL.
Molecule B13 registered an EC50 of 0.323 µg/mL.

A further assay addresses T1, mApple-chis. Description: ELISA, purified tagged VHH on coated antigen.
Description: as §2
Molecule B4 came in with an EC50 of 0.255 µg/mL.
On the same count and under the same terms, the result for B5 reads 0.0468 µg/mL; that for B8, 0.0129 µg/mL.
As for B9, the EC50 was 0.0584 µg/mL.
Consider B11, for which the “OD at 20 µg/mL” value was determined as 0.8 OD.
Regarding B12, the EC50 is 1.23 µg/mL and the “OD at 20 µg/mL” value was 1.4 OD.

Source of the values: patent US20240247076A1 (SUZHOU ALPHAMAB, published 2024).
